According to publication PMC11931385, “Structural and functional analysis of cancer-associated missense variants in the retinoblastoma protein pocket domain” (The Journal of Biological Chemistry, 2025):
Positions count from the first letter of the chain named. Numbers in names are those of the source. No end group written: not given here. TMR = tetramethyl rhodamine dye

Assays:
Assay in all cases: fluorescence polarisation; 37 °C, after the 25 °C reading ramped over 7 min to 37 °C and 2 min incubation; unlabeled Rb^P against 1.5 nM TMR-E2F1^TD or 7.5 nM TMR-E7^LxCxE; 25 mM Tris pH 8.0, 200 mM NaCl, 1 mM DTT, 0.1% Tween-20; apparent Kd
Conditions in all cases: both partners purified
[1] = biological target: T1, Rb^P E554K (human, UniProt P06400 380-788, E554K)
T1 construct: also called variant 28
T1 sequence (looked up): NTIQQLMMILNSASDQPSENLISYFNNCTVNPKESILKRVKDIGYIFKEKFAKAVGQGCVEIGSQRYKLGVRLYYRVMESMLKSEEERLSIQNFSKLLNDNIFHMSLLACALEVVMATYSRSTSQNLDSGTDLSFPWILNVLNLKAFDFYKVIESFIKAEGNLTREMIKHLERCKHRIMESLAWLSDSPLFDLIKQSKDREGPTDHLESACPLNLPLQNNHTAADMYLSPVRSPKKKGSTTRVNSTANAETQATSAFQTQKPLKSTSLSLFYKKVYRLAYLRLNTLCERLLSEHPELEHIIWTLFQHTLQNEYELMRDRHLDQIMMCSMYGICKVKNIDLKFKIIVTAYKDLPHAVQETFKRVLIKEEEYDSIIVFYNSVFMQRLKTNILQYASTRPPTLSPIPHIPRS

[2] = biological target: T2, Rb^P L572I (human, UniProt P06400 380-788, L572I)
T2 construct: also called variant 31
T2 sequence (looked up): T1 sequence (looked up) with K175E, L193I

[3] = biological target: T3, Rb^P Y606C (human, UniProt P06400 380-788, Y606C)
T3 construct: also called variant 37
T3 sequence (looked up): T1 sequence (looked up) with K175E, Y227C

[4] = biological target: T4, Rb^P R611S (human, UniProt P06400 380-788, R611S)
T4 construct: also called variant 38
T4 sequence (looked up): T1 sequence (looked up) with K175E, R232S

[5] = biological target: T5, Rb^P R668H (human, UniProt P06400 380-788, R668H)
T5 construct: also called variant 52
T5 sequence (looked up): T1 sequence (looked up) with K175E, R289H

B1: TMR-E2F1^TD, peptide of the E2F1 transactivation domain (peptide)
peptide: {TMR}-GEGIRDLFDCDFGDLTPLD
notes: also called E2F^TD; source: synthetic peptide, bought: GenScript
[1]
  Kd: 3270 nM
[2]
  Kd: 87 nM
[3]
  Kd: 27 nM
[4]
  Kd: 30 nM
[5]
  Kd: 22 nM

B2: TMR-E7^LxCxE, LxCxE peptide of the E7 oncoprotein from HPV (peptide)
peptide: DLYCYEQLN
modifications: also: TMR label, position not given here
notes: source: synthetic peptide, bought: GenScript
[1]
  Kd: 48 nM
[2]
  Kd: 15 nM
[3]
  Kd: 23 nM
[4]
  Kd: 15 nM
[5]
  Kd: 28 nM
